# Measurements taken from US8318206.
# T1: Fmoc-Gly-d-Phe-d-Cys (peptide 2) (not fully specified)
# T1 chain: GFC
# T2: Fmoc-Gly-Phe-Cys-NH2 (peptide 1)
# T2 chain: GFC
# B1: thermolysin from B. thermoproteolyticus Rokko (protein)
# chain: ITGTSTVGVGRGVLGDQKNINTTYSTYYYLQDNTRGNGIFTYDAKYRTTLPGSLWADADNQFFASYDAPAVDAHYYAGVTYDYYKNVHNRLSYDGNNAAIRSSVHYSQGYNNAFWNGSQMVYGDGDGQTFIPLSGGIDVVAHELTHAVTDYTAGLIYQNESGAINEAISDIFGTLVEFYANKNPDWEIGEDVYTPGISGDSLRSMSDPAKYGDPDHYSKRYTGTQDNGGVHINSGIINKAAYLISQGGTHYGVSVVGIGRDKLGKIFYRALTQYLTPTSNFSQLRAAAVQSATDLYGSTSQEVASVKQAFDAVGVK
# What was measured:
# [1] = molecular target: T1, Fmoc-Gly-d-Phe-d-Cys (peptide 2)
# [2] = molecular target: T2, Fmoc-Gly-Phe-Cys-NH2 (peptide 1)
protein,measurement,setting,value
B1,dispersion of nanoparticle aggregate,[1],nanoparticles functionalised with Fmoc-Gly-d-Phe-d-Cys did not disperse upon introduction of thermolysin
same,HPLC of the supernatant after thermolysin treatment (cleaved fragment),[2],HPLC of the supernatant detected the presence of Fmoc-Gly only
same,"shift in the plasmon resonance peak (UV-visible spectra), 6 h after addition of 7.2 nM thermolysin",[2],a clear shift in the plasmon resonance peak from 565 nm to 532 nm 6 h after addition of 7.2 nM thermolysin
same,"Δ ratio A/D over a period of 47 h, 7.2 nM thermolysin",[2],"The Δ ratio A/D increases over a period of 47 h for 7.2 nM and 2.08 zM, to 96.5% and 25.2% respectively"
same,"Δ ratio A/D over a period of 47 h, 2.08 zM thermolysin",[2],"The Δ ratio A/D increases over a period of 47 h for 7.2 nM and 2.08 zM, to 96.5% and 25.2% respectively"
